Literature values, collected in article PMC3577484.
Several values for one entry are separate records, joined by “and”; a condition that tells them apart may be missing. Equal values may be shown once.

Target: insulin receptor (Xenopus laevis) (UniProt Q9PVZ4)
Experiment: Scatchard radioligand binding

Sequence of insulin (F8WCM5 25-54): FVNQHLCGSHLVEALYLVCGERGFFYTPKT
Sequence of insulin (P01308 90-110, further chain): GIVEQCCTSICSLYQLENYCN
Sequence of UniProt Q9PVZ4 (Q9PVZ4 759-1362): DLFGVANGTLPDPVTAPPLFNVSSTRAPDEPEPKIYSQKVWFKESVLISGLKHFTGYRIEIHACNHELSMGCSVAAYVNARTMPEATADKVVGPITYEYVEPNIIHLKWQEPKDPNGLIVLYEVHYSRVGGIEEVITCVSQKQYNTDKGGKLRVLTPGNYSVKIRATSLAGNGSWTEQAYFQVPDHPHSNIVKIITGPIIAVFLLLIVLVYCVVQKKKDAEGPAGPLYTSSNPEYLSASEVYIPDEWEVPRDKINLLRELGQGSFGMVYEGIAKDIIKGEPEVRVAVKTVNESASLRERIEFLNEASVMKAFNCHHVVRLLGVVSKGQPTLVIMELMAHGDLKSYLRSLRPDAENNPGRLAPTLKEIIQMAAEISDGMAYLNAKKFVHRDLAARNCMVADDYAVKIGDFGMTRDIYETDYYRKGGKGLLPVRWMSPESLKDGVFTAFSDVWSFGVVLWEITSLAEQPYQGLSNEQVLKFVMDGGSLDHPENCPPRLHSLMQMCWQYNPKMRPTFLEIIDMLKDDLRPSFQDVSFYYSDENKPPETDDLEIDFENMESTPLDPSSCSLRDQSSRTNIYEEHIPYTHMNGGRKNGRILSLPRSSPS

Kd: 0.886 nM and 5.32 nM
Substance: insulin (from UniProt P01308)
